These results are taken from article doi:10.1101/2021.01.18.427180 (bioRxiv, 2021).

In one experiment the target is recombinant human TLR2 (human, UniProt O60603). The experiment can be described thus: flow cytometry of receptor-conjugated beads.
A further experiment deals with T1, recombinant human CD14 (human, UniProt P08571 20-345).
T1 sequence: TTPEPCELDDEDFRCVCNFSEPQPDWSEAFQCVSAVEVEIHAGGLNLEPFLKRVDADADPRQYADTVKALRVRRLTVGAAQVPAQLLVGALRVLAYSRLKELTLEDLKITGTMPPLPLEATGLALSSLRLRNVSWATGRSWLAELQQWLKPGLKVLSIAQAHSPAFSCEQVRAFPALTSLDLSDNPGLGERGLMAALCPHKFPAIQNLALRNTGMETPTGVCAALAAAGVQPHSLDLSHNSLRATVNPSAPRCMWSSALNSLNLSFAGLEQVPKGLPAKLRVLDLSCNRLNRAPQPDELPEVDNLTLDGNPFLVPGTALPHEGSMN
Nature of the experiment: flow cytometry of receptor-conjugated beads.

recombinant human TLR2, sequence (O60603 21-588): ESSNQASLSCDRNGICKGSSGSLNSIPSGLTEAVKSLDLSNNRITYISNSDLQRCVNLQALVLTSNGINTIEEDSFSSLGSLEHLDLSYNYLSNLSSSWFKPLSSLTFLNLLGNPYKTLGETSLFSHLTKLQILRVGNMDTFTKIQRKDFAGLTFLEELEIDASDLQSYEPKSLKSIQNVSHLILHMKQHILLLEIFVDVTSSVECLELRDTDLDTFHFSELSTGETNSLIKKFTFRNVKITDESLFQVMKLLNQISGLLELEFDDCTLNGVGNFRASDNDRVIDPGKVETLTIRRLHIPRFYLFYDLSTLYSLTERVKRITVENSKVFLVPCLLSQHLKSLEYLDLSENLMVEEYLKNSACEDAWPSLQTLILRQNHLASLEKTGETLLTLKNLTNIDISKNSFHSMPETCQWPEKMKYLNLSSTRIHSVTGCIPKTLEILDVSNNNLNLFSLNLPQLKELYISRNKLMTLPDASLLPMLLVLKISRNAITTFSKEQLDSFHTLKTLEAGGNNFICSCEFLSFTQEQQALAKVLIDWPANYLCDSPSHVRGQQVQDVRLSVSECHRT

B1: KAMP-18C (peptide)
peptide: RAIGGGLSSVGGGSSTIK
B1: the binding result in the experiment with recombinant human TLR2 and with recombinant human CD14 was “binds” in each case.

B2: KAMP-10 (peptide)
peptide: GGLSSVGGGS
For the molecule B2, the binding result in the experiment with recombinant human TLR2 and with recombinant human CD14 was “binds” each time.
